Results from US20230212587A1, “Mutant Hydroxyphenylpyruvate Dioxygenase Polypeptide, Encoding Gene Thereof and Use Therefor” (Beijing Dabeinong Biotechnology Co., Ltd., priority 2019, published 2023).

B1: SiHPPDm-F372V: Setaria italica HPPD mutant F372V, SEQ ID NO: 359 (protein)
chain: MPPTPTPAAAAPGAAAAPAAGDQAAFRLVGHRGFVRVNPRSDRFHTLSFHHVELWCADATSAAGRFSFGLGAPLAARSDLSTGNSAHASLLLRSGSLAFLFTAPYAHGVDAATASLPSFSAPAARSFAADHGLAVRAIGLRVADAEDAFRASVAAGARPAFKPVELGLGFRLAEVELYGDVVLRYVSYPDAEDAPFLPGFENVNNPGALNYGLRRFDHIVGNVPELAPVAAYVAGFTGFHEFAEFTAEDVGTAESGLNSMVLANNSETVLIPLNEPVHGTKRRSQIQTFLDHNGGPGVQHIALASDDVLRTLREMQARSAMGGFEFMAAPPPDYYEGVRRRAGDVLSEAQIKECQELGVLVDRDDQGVLLQIVTKPVGDRQTLFLEIIQRIGCMEKDEQGQEYQKGGCGGFGKGNFSQLFKSIEDYEKSLESKQAAAVQGS
modifications: SiHPPDm-F372V Amino Acid Sequence
B2: HaHPPDm-F372V: Helianthus annuus HPPD mutant F372V, SEQ ID NO: 371 (protein)
chain: MGTEATVAAVVAGDESDHPTSAFKLVGFKNFIRTNPMSDKFTVKNFHHIEFWCSDATNTARRFSWGLGMPIIFKSDLSTGNSTHASYLLRSGHLNFLFTAPYSPSISPTTTTASIPTFSHSASRHFTATHGLAVRAIAVEVEDAETAFAVSVANGAKPSSPPVTLGHNDVVLSEVKLYGDVVLRYVSYKNNTNNNNNNDNDNYIFLPGFEAMDKTSSFQELDYGIRRLDHAVGNVPELAPAVDYVKSFTGFHEFAEFTAEDVGTSESGLNSVVLACNSEMVLIPMNEPVYGTKRKSQIQTYLEHNEGAGVQHLALASEDIFRTLREMRKRSGVGGFEFMPSPPPTYYRNLKSRAGDVLSDEQIKECEELGILVDRDDQGTLLQIVTKPVGDRPTIFIEIIQRVGCMVKDDEGKVQQKAGCGGFGKGNFSELFKSIEEYEKTLEARSTTAA
modifications: HaHPPDm-F372V Amino Acid Sequence
B3: BnHPPDm-F372V: Brassica napus HPPD mutant F372V, SEQ ID NO: 369 (protein)
chain: MGHENAAVCETQQHDDAASPGFKLVGFSKFVRKNPKSDKFKVKRFHHIEFWCGDATNVSRRFSWGLGMRFSAKSDLSTGNMVHASYLLTSGDLRFLFTAPYSPSLSAGEAQPSATASIPSFDHASCRSFFSSHGLGVRAVAIEVEDAESAFSISVANGAVPSSPPNVLNGAVTIAEVKLYGDVVLRYVSYYNGTVSFLPGFESVDDTSSFPLDYGIRRLDHAVGNVPELGPALTYLAGFTGFHQFAEFTADDVGTAESGLNSAVLANNDEMVLLPINEPVHGTKRKSQIQTFLEHNEGAGLQHLALMSEDIFRTLREMRKRSGVGGFDFMPSPPPTYYKNLKKRVGDVLSEEQIEECEELGILVDRDDQGTLLQIVTKPLGDRPTIFIEIIQRVGCMKRDEEGKVYQSGGCGGFGKGNFSELFKSIEEYEKTLEAKQLVG
modifications: BnHPPDm-F372V Amino Acid Sequence
B4: HvHPPDm-F372V: Hordeum vulgare HPPD mutant F372V, SEQ ID NO: 357 (protein)
chain: MPPTPTTPAATGAAAAVTPEHARPHRMVRFNPRSDRFHTLSFHHVEFWCADAASAAGRFAFALGAPLAARSDLSTGNSAHASQLLRSGSLAFLFTAPYANGCDAATASLPSFSADAARRFSADHGIAVRSVALRVADAAEAFRASRRRGARPAFAPVDLGRGFAFAEVELYGDVVLRFVSHPDGTDVPFLPGFEGVTNPDAVDYGLTRFDHVVGNVPELAPAAAYIAGFTGFHEFAEFTAEDVGTTESGLNSVVLANNSEGVLLPLNEPVHGTKRRSQIQTFLEHHGGPGVQHIAVASSDVLRTLRKMRARSAMGGFDFLPPPLPKYYEGVRRLAGDVLSEAQIKECQELGVLVDRDDQGVLLQIVTKPVGDRPTLFLEMIQRIGCMEKDERGEEYQKGGCGGFGKGNFSELFKSIEDYEKSLEAKQSAAVQGS
modifications: HvHPPDm-F372V Amino Acid Sequence
B5: AtHPPDm-F372V: Arabidopsis thaliana HPPD mutant F372V, SEQ ID NO: 349 (protein)
chain: MGHQNAAVSENQNHDDGAASSPGFKLVGFSKFVRKNPKSDKFKVKRFHHIEFWCGDATNVARRFSWGLGMRFSAKSDLSTGNMVHASYLLTSGDLRFLFTAPYSPSLSAGEIKPTTTASIPSFDHGSCRSFFSSHGLGVRAVAIEVEDAESAFSISVANGAIPSSPPIVLNEAVTIAEVKLYGDVVLRYVSYKAEDTEKSEFLPGFERVEDASSFPLDYGIRRLDHAVGNVPELGPALTYVAGFTGFHQFAEFTADDVGTAESGLNSAVLASNDEMVLLPINEPVHGTKRKSQIQTYLEHNEGAGLQHLALMSEDIFRTLREMRKRSSIGGFDFMPSPPPTYYQNLKKRVGDVLSDDQIKECEELGILVDRDDQGTLLQIVTKPLGDRPTIFIEIIQRVGCMMKDEEGKAYQSGGCGGFGKGNFSELFKSIEEYEKTLEAKQLVG
modifications: AtHPPDm-F372V Amino Acid Sequence
B6: BdHPPDm-F372V: Brachypodium distachyon HPPD mutant F372V, SEQ ID NO: 355 (protein)
chain: MPPPATTAAPAAAAVTPEHARPPRRVARVNPRSDRFSALSFHHVELWCADAASAAGRFSFALGAPPAARSDLSTGNSAHASILLRSGSLAFLFTAPYAPSPASDSAASIPSFSASAARQFTADHGGLAVRAVALRVSSASDAFHASVSAGARPSFPPADLGQGFALAEVELYGDVVLRFISHPDENTEIPFLPGFESVSNPGASTYGLTRFDHVVGNVPSLAPVAAYIAGFTGFHEFAEFTAEDVGTADSGLNSVVLANNSERVLLPLNEPVHGTKRRSQIQTYLDHHGGPGVQHIALASDDVLRTLREMRARSAMGGFEFLAPPPPNYYDGVRRRAGDVLSEAQIKECQELGVLVDRDDQGVLLQIVTKPVGDRPTLFLEMIQRIGCMEKDEIGQEQQKGGCGGFGKGNFSELFRSIEEYEKSLEAKQSAVVQES
modifications: BdHPPDm-F372V Amino Acid Sequence
B7: CaHPPDm-F372V: Cicer arietinum HPPD mutant F372V, SEQ ID NO: 367 (protein)
chain: MGTIETQTGFKLVGFNNFVRTNPKSDRFKVKRFHHVEFWCPDATNTARRFSWGLGMPIVAKSDLSTGNQTHASYLLRSGDLNFLFTAAYSPSISLSAPHPTASIPSFSAPTSFAFSASHGLGVRAVAIEVDDAEFAYTTSVNHGAIPSSPPVVLDNRVKLAEVQLYGDVVLRYVSYNDPIETSNPNPNHWFLPGFEPVEETSSNQSIDFGIQRLDHAVGNVPELSSALNYVKQFTGFHEFAEFTAEDVGTSESGLNSTVLANNEETVLLPMNEPVYGTKRKSQIQTYLEHNEGAGLQHLALMSNDIFKTLREMRKRSGIGGFEFMPSPPPTYYSNLKKRVGDVLNDEQIKECEELGILVDKDDQGTLLQIVTKPVGDRPTIFIEIIQRVGCMLKDDEGKEYQKGGCGGFGKGNFSELFKSIEEYEKTLEIKRTA
modifications: CaHPPDm-F372V Amino Acid Sequence
B8: SbHPPDm-F372V: Sorghum bicolor HPPD mutant F372V, SEQ ID NO: 361 (protein)
chain: MPPTPTTAAATGAAVAAASAEQAAFRLVGHRNFVRVNPRSDRFHTLAFHHVELWCADAASAAGRFSFGLGAPLAARSDLSTGNTAHASLLLRSGALAFLFTAPYAHGADAATASLPSFSAAEARRFAADHGLAVRAVALRVADAEDAFRASVAAGARPAFEPVELGLGFRLAEVELYGDVVLRYVSYPDDADASFLPGFVGVTSPGAADYGLRRFDHIVGNVPELAPAAAYFAGFTGFHEFAEFTAEDVGTTESGLNSMVLANNAENVLLPLNEPVHGTKRRSQIQTYLDHHGGPGVQHMALASDDVLRTLREMQARSAMGGFEFMAPPAPEYYDGVRRRAGDVLTEAQIKECQELGVLVDRDDQGVLLQIVTKPVGDRPTLFLEIIQRIGCMEKDEKGQEYQKGGCGGFGKGNFSQLFKSIEDYEKSLEAKQAAAAQGS
modifications: SbHPPDm-F372V Amino Acid Sequence
B9: OsHPPDm-F372V: Oryza sativa HPPD mutant F372V, SEQ ID NO: 363 (protein)
chain: MPPTPTPTATTGAVSAAAAAGENAGFRLVGHRRFVRANPRSDRFQALAFHHVELWCADAASAAGRFAFALGAPLAARSDLSTGNSAHASLLLRSASVAFLFTAPYGGDHGVGADAATTASIPSFSPGAARRFAADHGLAVHAVALRVADAADAFRASVAAGARPAFQPADLGGGFGLAEVELYGDVVLRFVSHPDGADAPFLPGFEGVSNPGAVDYGLRRFDHVVGNVPELAPVAAYISGFTGFHEFAEFTAEDVGTAESGLNSVVLANNAETVLLPLNEPVHGTKRRSQIQTYLDHHGGPGVQHIALASDDVLGTLREMRARSAMGGFEFLAPPPPNYYDGVRRRAGDVLSEEQINECQELGVLVDRDDQGVLLQIVTKPVGDRPTFFLEMIQRIGCMEKDESGQEYQKGGCGGFGKGNFSELFKSIEEYEKSLEAKQAPTVQGS
modifications: OsHPPDm-F372V Amino Acid Sequence
B10: GmHPPDm-F372V: Glycine max HPPD mutant F372V, SEQ ID NO: 365 (protein)
chain: MPMYTPSLSAPSSNHIQPSVTLPLYITTTKLNLKQQHHTTPMPIPMCNEIQAQAQAQAQPGFKLVGFKNFVRTNPKSDRFQVNRFHHIEFWCTDATNASRRFSWGLGMPIVAKSDLSTGNQIHASYLLRSGDLSFLFSAPYSPSLSAGSSAASSASIPSFDAATCLAFAAKHGFGVRAIALEVADAEAAFSASVAKGAEPASPPVLVDDRTGFAEVRLYGDVVLRYVSYKDAAPQAPHADPSRWFLPGFEAAASSSSFPELDYGIRRLDHAVGNVPELAPAVRYLKGFSGFHEFAEFTAEDVGTSESGLNSVVLANNSETVLLPLNEPVYGTKRKSQIETYLEHNEGAGVQHLALVTHDIFTTLREMRKRSFLGGFEFMPSPPPTYYANLHNRAADVLTVDQIKQCEELGILVDRDDQGTLLQIVTKPVGDRPTIFIEIIQRIGCMVEDEEGKVYQKGACGGFGKGNFSELFKSIEEYEKTLEAKRTA
modifications: GmHPPDm-F372V Amino Acid Sequence

These molecules were tested on Arabidopsis thaliana T1 plants (assay: Topramezone tolerance of transgenic Arabidopsis thaliana T1 plants (pesticide damage grade by bleached leaf area, score, resistance evaluation)). Conditions: topramezone 25 g ai/ha (1x); HPPD F372V mutants, Table 7.
Format: in vivo
In short: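 Eighteen days after sowing, wild-type and HPPD-transgenic T1 Arabidopsis receive a topramezone spray at 1×, 2× or 4× field rate (25–100 g ai/ha) or water. Seven days later each plant is graded by its proportion of bleached leaf area.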

Row | Molecule | Resistance evaluation
1 | B1 | Moderately resistant
2 | B2 | Poorly resistant
3 | B3 | Poorly resistant
4 | B4 | Highly resistant
5 | B5 | Poorly resistant
6 | B6 | Highly resistant
7 | B7 | Poorly resistant
8 | B8 | Poorly resistant
9 | B9 | Moderately resistant
10 | B10 | Poorly resistant

Same assay, conditions: topramezone 100 g ai/ha (4x); HPPD F372V mutants, Table 7

Row | Molecule | Resistance evaluation
11 | B1 | Poorly resistant
12 | B2 | Non-resistant
13 | B3 | Non-resistant
14 | B4 | Poorly resistant
15 | B5 | Non-resistant
16 | B6 | Poorly resistant
17 | B7 | Non-resistant
18 | B8 | Non-resistant
19 | B9 | Non-resistant
20 | B10 | Non-resistant
